Test: yeast display, Sf9 membrane polyspecificity reagent, FACS + sequencing; frameworks hold sequencing errors
Procedure, shortened: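 Nanobodies from a synthetic yeast display library (Saccharomyces cerevisiae BJ5465), induced 36–48 hours with galactose, were stained 1 hour at 4 °C with 10% biotinylated, detergent-solubilized Sf9 membrane reagent, enriched on streptavidin microbeads, then FACS-sorted. Anti-HA (expression) and streptavidin (reagent binding) fluorescence set low and high (top ~1%) gates. Polyreactivity labels come from the gate of origin. Genes were colony-PCR amplified, MiSeq 2 × 250 sequenced and filtered by CDR length.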

Row | Sequence | polyreactivity (PSR sort gate)
1 | QVQLVESGGGLVQAGGSLRLSCAASGSIFSRYAMGWSRQAPGKERELVAAISKSGGTTYYADSVKGRFTISRDNAKNTVYLQMNSLKPEDTAVYYCNAKRYRNGSIGMGYWGQGSQVTVSS | high polyreactivity
2 | QVQLVESGGGLVQAGGSLRLSCAASGSIFSRYAMGWYRQAPGKERELVAAISRRRGTTYYADSVKGRFTISRDNAKNTVYLHMNSLKTEDTAVYYCAAVFVTQSFIYDYYYWGQGTQVTVSS | high polyreactivity
3 | QVQLVESGGGLVQAGGSLRLSCAASGSIFSRYAMGWYRQAPGKERELVAAISTIGGSTYYADSVKGRFTISRDNAKNTVYLQMNSLIPEDTAVYYCNARQTAALTPRYGYWGQGTQVTVSS | high polyreactivity
4 | QVQLVESGGGLVQAGGSLRLSCAASGSIFSRYTMGWYRQAPGKERELVAAISGSTTRTYYADSVKGRFTISRDNAKNTVYLQMNSLKPEDTAVYYCAATRGRGGRDDYWGQGTQVTVSS | high polyreactivity
5 | QVQLVESGGGLVQAGGSLRLSCAASGSIFSSNAMGWYIQAPGKERELVAAITSGGSTTYADSVKGRFTISRDNAKNTVNLQMNSLKPEDTAVYYCAADPVYRYYHGWTYLDYDYWGQGTQVTVSS | low polyreactivity
6 | QVQLVESGGGLVQAGGSLRLSCAASGSIFSSNAMGWYRPAPGKERELVAAITSGGSTTYADSVKGRFTISRDNAKNTVYLQMNSLKPEDTAVYYCAADPVYRYYHGWTYLDYDYWGQGTQVTVSS | low polyreactivity
7 | QVQLVESGGGLVQAGGSLRLSCAASGSIFSSNAMGWYRQAPGKERELVAAITSGGSTTYADSVKGRFPISRDNAKNTVYFQMNSLKPEDTAVYYCAADPVYRYYHGWTYLDYDYWGQGTQVTVSS | low polyreactivity
8 | QVQLVESGGGLVQAGGSLRLSCAASGSIFSSNTMGWYRPAPGKERELVAAITSGGGTYYADSVKGRFTISRDNAKNTVSLQMNSLKPEDTAVYYCAAQRVYKSSPSYDYWGQGTLVTVSS | low polyreactivity
9 | QVQLVESGGGLVQAGGSLRLSCAASGSIFSSYAMGWDRQAPGKERELVAAISSGGGSTYYADSVKGRFTISRDNAKHTVYLQMNSLKPEDTAVYYCNAGKEALKTTYTYDYWGQGTQVTVSS | high polyreactivity
10 | QVQLVESGGGLVQAGGSLRLSCAASGSIFSSYAMGWYRQAPGKDRELVAAITRSGGSTYYADSVKGRFTISRDNAKNTVYVQMNSLKPEDTAVYYCNARGKGHYYWGQGTQVTVSS | high polyreactivity
11 | QVQLVESGGGLVQAGGSLRLSCAASGSIFSSYAMGWYRQAPGKERELVAAIDGSGGSTYADSVKGRFTISRDNAKITVYLQMNRLKPEDTAVYYCAVDSFLVYSAVRPYDYWGLGTQVTVSS | low polyreactivity
12 | QVQLVESGGGLVQAGGSLRLSCAASGSIFSSYAMGWYRQAPGKERELVAAISQSGGDTYYADSVKGRFTISRDNAKNTVYLQMNSLKPEDTAVYYCAASFWYYPMDYWGQGTQVTVSS | low polyreactivity
13 | QVQLVESGGGLVQAGGSLRLSCAASGSIFSSYAMGWYRQAPGKERELVAAITTRGDSTRYADSVKGRFTISRDNAKNTVYLQMNSLKPEDTAVYYCAARRRGASKYGYWGQGTQVTVSS | high polyreactivity
14 | QVQLVESGGGLVQAGGSLRLSCAASGSIFSSYAMGWYRQAPGKERELVAVITSGDSTNYADSVKGRFTISRDNAKNTVYLQMNSLKPEDTAVYYCAAGTQAHAYVVRPIEMDYWGQGTQVTVSS | low polyreactivity
15 | QVQLVESGGGLVQAGGSLRLSCAASGSIFSTNAMGWYRQAPRKERELVAAITYSGSRTYYADSVKGRFTISRDNAKNTVYLQMNSLKPEDTAVYYCAADTSWYSWWFDYWGQGTQVTVSS | low polyreactivity
16 | QVQLVESGGGLVQAGGSLRLSCAASGSIFSTNGMGWYRQAPGKERELVAAISTGGRTYYADSVKGRFTISRDNAKNTVYLQMNSLKPEETAVYYCAKDHWTTTYDEGDYWGQGTEVTVSS | low polyreactivity
17 | QVQLVESGGGLVQAGGSLRLSCAASGSIFSTYAMGWYRQAPGKERELVAAISGSGGRTYYADSVKGRFTISRDNAKNTVYLQMNSLKPEDTAVYDCASRVFRGLGEYYWGQGTQVTVSS | high polyreactivity
18 | QVQLVESGGGLVQAGGSLRLSCAASGSIFSTYAMGWYRQAPGKERELVAAISGSGGSTYYADSVKGRFTISRDNAKNTVYLQMNSLKPEDTAVYYCNRLPYVSSAYVGLGYWGQGTQVTVSS | high polyreactivity
19 | QVQLVESGGGLVQAGGSLRLSCAASGSIFSTYAMGWYRQAPGKERELVAAISVSGSSTYYADSVKGRFTISRDNAKNTVYLQMNSLKPEDTAVYYCNKAFRSVRPRRRYDYWGQGTQVTVSS | low polyreactivity
20 | QVQLVESGGGLVQAGGSLRLSCAASGSIFSTYAMGWYRQAPGKERELVAAITSDGTYADSVKGRFTISRDNAKNTVYLQLNSLKPEDTAVYYCNKDIKSATDSYHYEDDYWGQGTQVTVSS | low polyreactivity
21 | QVQLVESGGGLVQAGGSLRLSCAASGSIFSTYAMGWYRQAPGKERELVATINYSGGSTYYADSVKGRFTISRDNAKNTVYLQMNSLKPEDTAVYYCNTGPFVGFDYWGQGTQVTVSS | low polyreactivity
22 | QVQLVESGGGLVQAGGSLRLSCAASGSIFSVNAMGWYRQAPGKERELVATIRWSGSSTYYADSVKGRFTISRDNAKNSVYLQMKSLKPEDTAVYYCAADSTEIPWCGMDYWGQGTQVTLSS | low polyreactivity

Row | Sequence | polyreactivity (PSR sort gate)
23 | QVQLVESGGGLVQAGGSLRLSCAASGSIFSVNAMGWYRQAPGKETELVAGITISGGRTYYADSVKGRFTISRDNAKNTVYLQLNSLKPEDNAVYYCAADWVYPPGLKDSVHFGEYDYWGEGTQVTVSS | low polyreactivity
24 | QVQLVESGGGLVQAGGSLRLSCAASGSIFSVYAMGWYRQAPGKERELVAAINWDGTSTDYADSVKGRFTISRDNAKNTVYLQMNSLKPEDTAVYYCAAEGHTAFLVYRVSPLQYDYWGQGTQVTVSS | low polyreactivity
25 | QVQLVESGGGLVQAGGSLRLSCAASGSIFSVYAMGWYRQAPGKERELVAAISRSGGSTYYADSVKGRFTISRDNAKNTVYLQMNSLKPEDTAVYYCAARLAGRGSSSSRVVRTGGYWGQGTQVTVSS | high polyreactivity
26 | QVQLVESGGGLVQAGGSLRLSCAASGSIFSVYAMGWYRQAPGKERELVAVIWRGGSTNYADSVKGRFTISRDNAKNTVYLQMNSLKPEVTALYYCNARTFYRKFWYQFVSSYGYDYWGQGTQVTVSS | low polyreactivity
27 | QVQLVESGGGLVQAGGSLRLSCAASGSIFSVYVMGWYRQAPGKESELVAAISWSDRDTYYADSVKGRFTISRDYAKNTVDFQMNSLKPVDTAVYYGAAETFDYDVYIANGSGEYDYWGQVTQVTVSS | high polyreactivity
28 | QVQLVESGGGLVQAGGSLRLSCAASGSIFSWYAMGWYRQAPGKERELVAAIDSGSKYYADSVKGRFTISRDNAKNTVYLQMNSLKPEDTAVYYCAVDYGYYYWEPWPSDYDMYSWGQGTQVTVSS | high polyreactivity
29 | QVQLVESGGGLVQAGGSLRLSCAASGSIFSWYAMGWYRQAPGKERELVAAISWSSGSTYYADSVKGRFTISRDNAKNTVYLQMNSLKPEDTAVYYCAADATYLGWYELYYWGQGTQVTVSS | high polyreactivity
30 | QVQLVESGGGLVQAGGSLRLSCAASGSIFSYNAMGGYRPAPGKARELVAAITLSDGGTYYADSVKGRFTISRDNAKNTVYLQMNSLKPEDTAVYYCATTYWLWITYSAYYYWGQGSQVTVSS | low polyreactivity
31 | QVQLVESGGGLVQAGGSLRLSCAASGSIFSYNAMGWYRKAPGKERELVAAIRASGGDTYYADSVKGRFTISRDNAKNTVYLQMNSLKPEDTAVYYCAARTYAHHYASHGYWGQGTQVTVSS | low polyreactivity
32 | QVQLVESGGGLVQAGGSLRLSCAASGSIFSYNAMGWYRQAPGKERELVAAITSGDSTNYADSVKGRFTISRDNAKNTVYLQMNSLKPEDTAVYYCAADPVLPAFGYVGTSLGDYWGQGTQVTVSS | low polyreactivity
33 | QVQLVESGGGLVQAGGSLRLSCAASGSIFSYTMGWYRQAPGKERELVAAITSGGITYYADSVKGRFTISRDNAKNTVYLQMNSLKPEDTAVYYCNKDVGFTRPLYYWGQGTQVTVSS | low polyreactivity
34 | QVQLVESGGGLVQAGGSLRLSCAASGSIFSYYAMGWSRQAPGKERELVAAISWGDDSTYYADSVKGRFTISRDNAKNTVYLQMNSLKPEDTAVYYCAADRVGWYRTFDYWGQGTQVTVSS | low polyreactivity
35 | QVQLVESGGGLVQAGGSLRLSCAASGSIFSYYAMGWSRQEHGKERELVAAITRSGSTNYADSVKGRFTISRDNAKNTVYLQMNSLKPEDTAVYYCARRHYSSRVIYVSSKGGYWGQGTQVTVSS | high polyreactivity
36 | QVQLVESGGGLVQAGGSLRLSCAASGSIFSYYAMGWYRPAPGKERELVAAISWSGGSTYYADSVKGRFTISRDNAKNTVSLQMNSLIPADTAVYYCAAGVTYEKQTKYYYWGQGTQVTVSS | high polyreactivity
37 | QVQLVESGGGLVQAGGSLRLSCAASGSIFSYYAMGWYRQAPGKERELVAAISGDSGRTYYADSVKGRFTISRDNAKNTVYLQMNSLKPEDTAVYYCNARVAYRYRTGYDYWGQGTQVTVSS | high polyreactivity
38 | QVQLVESGGGLVQAGGSLRLSCAASGSIFSYYAMGWYRQAPGKERELVAAISSGVSSTYYADSVKGRFTISRDNAKNTVYLQMNSLKPEYTAVYYCNADRPYRLNEYWGQGTQVTVSS | high polyreactivity
39 | QVQLVESGGGLVQAGGSLRLSCAASGSIFSYYAMGWYRQAPGKERELVAAISWTGGSTYYADSVKGRFTISRDNAKNTVYLQMNSLKPEDTAVYYCAADSPRSDRDSYDYWGQGTQVTVSS | high polyreactivity
40 | QVQLVESGGGLVQAGGSLRLSCAASGSIFSYYAMGWYRQAPGKERELVAAITIRGGRTYYADSVKGRFTISRDNAKNSVYLQMNSLKPEDTAVYYCAAETGHKQHGYTYEVSRRCYGYWGQGTQVTVSS | low polyreactivity
41 | QVQLVESGGGLVQAGGSLRLSCAASGSIFSYYAMGWYRQAPGKERELVAAITISGSSTYYADSVKGRFTISRDNAKNTVYLQMNSLKPEDTAVYYCNVVPLGSKNSVSHYYWGQGTQVTVSS | high polyreactivity
42 | QVQLVESGGGLVQAGGSLRLSCAASGSIFSYYAMGWYRQAPGKERELVAAITTNTGNTYYADSVKGRFTISRDNAKNTVYLQMNSLKPEDSAVYYCAKSGVADFYYTYYYWGQGTQVNVSS | low polyreactivity
43 | QVQLVESGGGLVQAGGSLRLSCAASGSIFSYYAMGWYRQAPGKERELVAAITTSGGSTYYADSVKGRFTISRDNAKNTVYLQMNSLKPEDTAVYYCNAGPYWWYYGEDYWGQGSQVTVSS | low polyreactivity
